Measurements reported in IntAct's records for PubMed 15169891.

Molecular target: wasl_bovin WASL (UniProt Q95107)
Sequence (Q95107 whole entry): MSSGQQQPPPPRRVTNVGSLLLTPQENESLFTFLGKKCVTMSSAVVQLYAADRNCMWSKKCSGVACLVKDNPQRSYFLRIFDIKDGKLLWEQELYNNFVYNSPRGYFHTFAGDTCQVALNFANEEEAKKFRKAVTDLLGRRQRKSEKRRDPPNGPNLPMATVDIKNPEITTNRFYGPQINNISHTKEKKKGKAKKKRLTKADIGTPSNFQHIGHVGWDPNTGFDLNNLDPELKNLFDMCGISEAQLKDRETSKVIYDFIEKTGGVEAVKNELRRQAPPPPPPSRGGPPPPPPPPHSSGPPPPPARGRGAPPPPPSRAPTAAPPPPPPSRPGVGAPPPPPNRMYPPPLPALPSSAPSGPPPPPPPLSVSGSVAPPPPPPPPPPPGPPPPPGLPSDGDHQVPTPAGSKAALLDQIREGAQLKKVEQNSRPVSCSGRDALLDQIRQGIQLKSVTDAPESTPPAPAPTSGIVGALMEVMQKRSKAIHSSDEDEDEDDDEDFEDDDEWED

Src substrate cortactin (Mus musculus), Q60598 S405D;P416D;Y466D;Y482D, sequence (Q60598 whole entry S405D/P416D/Y466D/Y482D): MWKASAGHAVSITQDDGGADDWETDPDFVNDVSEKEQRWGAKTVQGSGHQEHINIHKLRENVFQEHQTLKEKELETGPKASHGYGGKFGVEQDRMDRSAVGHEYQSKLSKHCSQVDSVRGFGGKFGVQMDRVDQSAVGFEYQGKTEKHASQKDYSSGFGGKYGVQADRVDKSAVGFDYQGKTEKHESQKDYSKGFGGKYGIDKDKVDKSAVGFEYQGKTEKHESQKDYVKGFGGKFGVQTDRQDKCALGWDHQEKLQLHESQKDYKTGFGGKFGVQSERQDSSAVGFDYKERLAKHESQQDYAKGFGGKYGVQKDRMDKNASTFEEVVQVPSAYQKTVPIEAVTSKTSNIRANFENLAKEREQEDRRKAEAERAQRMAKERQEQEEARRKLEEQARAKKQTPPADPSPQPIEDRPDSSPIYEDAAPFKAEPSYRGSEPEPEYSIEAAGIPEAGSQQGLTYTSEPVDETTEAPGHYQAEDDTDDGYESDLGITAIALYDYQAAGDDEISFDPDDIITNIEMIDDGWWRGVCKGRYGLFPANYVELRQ
Src substrate cortactin (Mus musculus), Q60598 S405D;S418D, sequence (Q60598 whole entry S405D/S418D): as the sequence (Q60598 whole entry S405D/P416D/Y466D/Y482D) above, with D416P, S418D, D466Y, D482Y counted along it
Src substrate cortactin (Mus musculus), Q60598 Y466D;Y482D, sequence (Q60598 whole entry Y466D/Y482D): as the sequence (Q60598 whole entry S405D/P416D/Y466D/Y482D) above, with D405S, D416P counted along it
Src substrate cortactin (Mus musculus), Q60598 W525K, sequence (Q60598 whole entry W525K): as the sequence (Q60598 whole entry S405D/P416D/Y466D/Y482D) above, with D405S, D416P, D466Y, D482Y, W525K counted along it

| effect of a mutation on the interaction | Substance |
| --- | --- |
| decreasing interaction | Src substrate cortactin (Mus musculus), Q60598 S405D;P416D;Y466D;Y482D |
| decreasing interaction | Src substrate cortactin (Mus musculus), Q60598 Y466D;Y482D |
| disrupting interaction | Src substrate cortactin (Mus musculus), Q60598 W525K |
| increasing interaction | Src substrate cortactin (Mus musculus), Q60598 S405D;S418D |
